Measured values: US8071348B2, “Protein tyrosine phosphatase substrate-trapping double mutant and uses thereof” (Albert Einstein College of Medicine of Yeshiva University, priority 2002, dated 2011)
[ ]: non-standard residue; d: D form. F2Pmp = N[C@@H](Cc1ccc(C(F)(F)P(=O)(O)O)cc1)C(=O)O

Experiments:
[1] = system: EGFR^988-998 peptide, DADEpYLIPQQG; assay: Kinetic constants for PTP1B-catalyzed hydrolysis of pTyr-containing EGFR988-998 peptide; type: biochemical; details: EGFR988-998 peptide as substrate; 25° C. and pH 7.0
In short: (§1)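 PTP1B catalytic domain (residues 1–321), wild-type or mutant, expressed in E. coli. Continuous assay at 25° C., pH 7.0, in 50 mM 3,3-dimethylglutarate with 1 mM EDTA (ionic strength 0.15 M). Dephosphorylation followed by absorbance increase at 282 nm or fluorescence at 305 nm to obtain kcat and Km.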

[2] = molecular target: T1, EGFR^988-998 peptide, DADEpYLIPQQG (Homo sapiens, UniProt P18031, D181A/Q262A); assay: as above; type: biochemical; details: EGFR988-998 peptide as substrate
T1 construct: The catalytic domain of PTP1B (residues 1 to 321) was used for in vitro study; made in house; host or cells: E. coli (pT7-7 plasmids)
T1 sequence (P18031 1-321 D181A/Q262A): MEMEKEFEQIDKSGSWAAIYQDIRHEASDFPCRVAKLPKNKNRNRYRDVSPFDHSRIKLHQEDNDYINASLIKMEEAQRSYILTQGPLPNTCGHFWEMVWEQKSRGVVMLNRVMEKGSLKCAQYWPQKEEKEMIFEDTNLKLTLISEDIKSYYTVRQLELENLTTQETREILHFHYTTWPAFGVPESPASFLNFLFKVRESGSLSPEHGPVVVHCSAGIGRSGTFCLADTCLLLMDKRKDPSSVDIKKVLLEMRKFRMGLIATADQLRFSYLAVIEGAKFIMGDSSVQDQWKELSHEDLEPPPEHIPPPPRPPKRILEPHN
In short: as §1

[3] = molecular target: T2, EGFR 988-998 peptide DADEpYLIPQQG
T2 chain: DADEXLIPQQG

B1: PTP1B/D181A/Q262A, catalytic domain (residues 1 to 321) (enzyme, human, UniProt P18031 1-321, looked up)
chain: MEMEKEFEQIDKSGSWAAIYQDIRHEASDFPCRVAKLPKNKNRNRYRDVSPFDHSRIKLHQEDNDYINASLIKMEEAQRSYILTQGPLPNTCGHFWEMVWEQKSRGVVMLNRVMEKGSLKCAQYWPQKEEKEMIFEDTNLKLTLISEDIKSYYTVRQLELENLTTQETREILHFHYTTWPAFGVPESPASFLNFLFKVRESGSLSPEHGPVVVHCSAGIGRSGTFCLADTCLLLMDKRKDPSSVDIKKVLLEMRKFRMGLIATADQLRFSYLAVIEGAKFIMGDSSVQDQWKELSHEDLEPPPEHIPPPPRPPKRILEPHN
notes: range 1-321; Used in vitro (ITC, kinetics); also called PTP1B substrate-trapping double mutant
- Km [1]: 51 ± 4 µM
- kcat [1]: (2.7 ± 0.1) × 10^−3 s^−
- kcat, fold lower than D181A [2]: 24 fold
- Km (hydrolysis of the EGFR 988-998 peptide, 25 C, pH 7.0) [3]: 51 µM
